B1: GLAPGGLAVV (peptide)
peptide: GLAPGGLAVV
B2: ALLGKIEKV (peptide)
peptide: ALLGKIEKV
B3: RLLDEQFAV (peptide)
peptide: RLLDEQFAV
B4: TLYALSHAV (peptide)
peptide: TLYALSHAV
B5: ALLEMDARL (peptide)
peptide: ALLEMDARL
B6: SVWFGPKEV (peptide)
peptide: SVWFGPKEV
B7: RLLDVLAPLV (peptide)
peptide: RLLDVLAPLV
B8: SLWSVARGV (peptide)
peptide: SLWSVARGV
B9: LLHEENFSV (peptide)
peptide: LLHEENFSV
B10: ALSSKPAEV (peptide)
peptide: ALSSKPAEV
B11: RLTESVLYL (peptide)
peptide: RLTESVLYL
B12: SMGDHLWVA (peptide)
peptide: SMGDHLWVA
B13: QLLPNLRAV (peptide)
peptide: QLLPNLRAV
B14: RLFEENDVNL (peptide)
peptide: RLFEENDVNL
B15: YLDKNLTVSV (peptide)
peptide: YLDKNLTVSV
B16: YAFPKSITV (peptide)
peptide: YAFPKSITV
B17: QLTPVLVSV (peptide)
peptide: QLTPVLVSV
B18: KLDNNLDSV (peptide)
peptide: KLDNNLDSV
B19: SLLSPEHLQYL (peptide)
peptide: SLLSPEHLQYL
B20: SQADVIPAV (peptide)
peptide: SQADVIPAV
B21: LLADIGGDPFAA (peptide)
peptide: LLADIGGDPFAA
B22: SILDIVTKV (peptide)
peptide: SILDIVTKV
B23: KLYDLELIV (peptide)
peptide: KLYDLELIV
B24: TLLDSPIKV (peptide)
peptide: TLLDSPIKV
B25: TVMDIDTSGTFNV (peptide)
peptide: TVMDIDTSGTFNV
B26: TLLKKISEA (peptide)
peptide: TLLKKISEA
B27: SLAVLVPIV (peptide)
peptide: SLAVLVPIV
B28: SICNGVPMV (peptide)
peptide: SICNGVPMV
B29: NVFDGLVRV (peptide)
peptide: NVFDGLVRV
B30: KLSEAVTSV (peptide)
peptide: KLSEAVTSV
B31: ALHEEVVGV (peptide)
peptide: ALHEEVVGV
B32: YLWDLDHGFAGV (peptide)
peptide: YLWDLDHGFAGV
B33: YLDDEKNWGL (peptide)
peptide: YLDDEKNWGL
B34: NLASFIEQVAV (peptide)
peptide: NLASFIEQVAV
B35: KLTDHLKYV (peptide)
peptide: KLTDHLKYV
B36: SLAESSFDV (peptide)
peptide: SLAESSFDV
B37: RMLIKLLEV (peptide)
peptide: RMLIKLLEV
B38: ALLNQHYQV (peptide)
peptide: ALLNQHYQV
B39: RLAAFYSQV (peptide)
peptide: RLAAFYSQV
B40: RLPDIPLRQV (peptide)
peptide: RLPDIPLRQV
B41: HLAKVTAEV (peptide)
peptide: HLAKVTAEV
B42: YLITGNLEKL (peptide)
peptide: YLITGNLEKL
B43: SLFEWFHPL (peptide)
peptide: SLFEWFHPL
B44: RLPPDTLLQQV (peptide)
peptide: RLPPDTLLQQV
B45: SLHNGVIQL (peptide)
peptide: SLHNGVIQL
B46: VVLDDKDYFL (peptide)
peptide: VVLDDKDYFL
B47: RILPKVLEV (peptide)
peptide: RILPKVLEV
B48: SLIPAVLTV (peptide)
peptide: SLIPAVLTV
B49: SLWEGGVRGV (peptide)
peptide: SLWEGGVRGV
B50: TLAAIIHGA (peptide)
peptide: TLAAIIHGA
B51: RMSDVVKGV (peptide)
peptide: RMSDVVKGV
B52: LLIDDEYKV (peptide)
peptide: LLIDDEYKV
B53: VLSQVYSKV (peptide)
peptide: VLSQVYSKV
B54: RLFPDGIVTV (peptide)
peptide: RLFPDGIVTV

These binders were tested against HLA-A*02 (human) (assay: UV-ligand exchange, anti-b2m ELISA; grade: exchange yield >=50%).
Binder B1 has a peptide exchange yield of 50 to 75%. B2 was tested, and the peptide exchange yield was 50 to 75%. B3 gave a peptide exchange yield of 50 to 75%. B4 showed a peptide exchange yield of 50 to 75%. Work on B5 yielded a peptide exchange yield of 50 to 75%. For B6, the peptide exchange yield was 50 to 75%. For B7, the peptide exchange yield was 50 to 75%. With B8 the peptide exchange yield was 50 to 75%. Binder B9 has a peptide exchange yield of 50 to 75%. For B10, the peptide exchange yield was 50 to 75%. B11 was tested, and the peptide exchange yield was 50 to 75%. B12 showed a peptide exchange yield of 50 to 75%. B13 was tested, and the peptide exchange yield was 50 to 75%. B14 gave a peptide exchange yield of 50 to 75%. B15 gave a peptide exchange yield of 50 to 75%. Work on B16 yielded a peptide exchange yield of 50 to 75%. Binder B17 has a peptide exchange yield of 50 to 75%. With B18 the peptide exchange yield was 50 to 75%. B19 gave a peptide exchange yield of 50 to 75%. In the case of B20, the peptide exchange yield is reported as 50 to 75%. B21 gave a peptide exchange yield of 50 to 75%. In the case of B22, the peptide exchange yield is reported as 50 to 75%. B23 was tested, and the peptide exchange yield was 50 to 75%. Binder B24 has a peptide exchange yield of 50 to 75%. B25 showed a peptide exchange yield of 50 to 75%. Binder B26 has a peptide exchange yield of 50 to 75%. B27 showed a peptide exchange yield of 50 to 75%. B28 showed a peptide exchange yield of 50 to 75%. B29 gave a peptide exchange yield of 50 to 75%. Binder B30 has a peptide exchange yield of 50 to 75%. B31 showed a peptide exchange yield of 50 to 75%. In the case of B32, the peptide exchange yield is reported as 50 to 75%. B33 showed a peptide exchange yield of 50 to 75%. Work on B34 yielded a peptide exchange yield of 50 to 75%. Work on B35 yielded a peptide exchange yield of 50 to 75%. Work on B36 yielded a peptide exchange yield of 50 to 75%. In the case of B37, the peptide exchange yield is reported as 50 to 75%. Binder B38 has a peptide exchange yield of 50 to 75%. Binder B39 has a peptide exchange yield of 50 to 75%. B40 gave a peptide exchange yield of 50 to 75%. In the case of B41, the peptide exchange yield is reported as 50 to 75%. For B42, the peptide exchange yield was 50 to 75%. Work on B43 yielded a peptide exchange yield of 50 to 75%. Binder B44 has a peptide exchange yield of 50 to 75%. Binder B45 has a peptide exchange yield of 50 to 75%. In the case of B46, the peptide exchange yield is reported as 50 to 75%. Work on B47 yielded a peptide exchange yield of 50 to 75%. Work on B48 yielded a peptide exchange yield of 50 to 75%. In the case of B49, the peptide exchange yield is reported as 50 to 75%. In the case of B50, the peptide exchange yield is reported as 50 to 75%. With B51 the peptide exchange yield was 50 to 75%. With B52 the peptide exchange yield was 50 to 75%. With B53 the peptide exchange yield was 50 to 75%. B54 was tested, and the peptide exchange yield was 50 to 75%.
